“And” between values parts separate entries of the source, which are not always exact repeats. Equal values may be shown once.
Assays:
Assay in all cases: cell-based or functional assay
[1] = molecular target: PD-L1 on LoVo / LoVo.OKT3.GFP cells (UniProt Q9NZQ7)
[2] = molecular target: carcinoembryonic antigen (CEA) on LoVo, LS174T or H508 tumor cells (UniProt P06731)
[3] = molecular target: Human folate receptor alpha (FolR) on cells (human) (UniProt P15328)
Chain of UniProt P15328 (P15328 25-234): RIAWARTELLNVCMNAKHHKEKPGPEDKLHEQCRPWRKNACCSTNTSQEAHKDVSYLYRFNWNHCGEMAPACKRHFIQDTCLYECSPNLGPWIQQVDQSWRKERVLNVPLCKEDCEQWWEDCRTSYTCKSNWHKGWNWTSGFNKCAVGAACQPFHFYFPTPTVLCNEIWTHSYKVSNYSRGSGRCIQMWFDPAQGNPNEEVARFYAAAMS

Chain of UniProt P06731 (P06731 35-702 limits assumed): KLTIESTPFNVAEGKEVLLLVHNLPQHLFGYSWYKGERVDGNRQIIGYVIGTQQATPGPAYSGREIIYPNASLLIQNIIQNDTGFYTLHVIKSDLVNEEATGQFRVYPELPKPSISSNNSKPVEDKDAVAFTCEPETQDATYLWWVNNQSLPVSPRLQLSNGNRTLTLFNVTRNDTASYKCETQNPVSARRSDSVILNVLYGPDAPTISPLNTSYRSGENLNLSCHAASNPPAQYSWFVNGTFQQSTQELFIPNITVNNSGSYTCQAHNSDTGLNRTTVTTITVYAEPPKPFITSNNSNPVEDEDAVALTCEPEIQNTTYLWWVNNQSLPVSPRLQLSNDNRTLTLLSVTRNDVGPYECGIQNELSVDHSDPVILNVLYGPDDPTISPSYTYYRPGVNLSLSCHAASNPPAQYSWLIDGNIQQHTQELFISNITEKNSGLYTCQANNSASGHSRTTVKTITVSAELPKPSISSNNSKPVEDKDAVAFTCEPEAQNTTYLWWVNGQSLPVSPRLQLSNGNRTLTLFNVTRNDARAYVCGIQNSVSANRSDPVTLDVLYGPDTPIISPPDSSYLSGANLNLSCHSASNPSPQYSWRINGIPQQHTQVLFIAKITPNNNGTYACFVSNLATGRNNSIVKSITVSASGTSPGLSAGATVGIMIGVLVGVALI
Chain of UniProt Q9NZQ7 (Q9NZQ7 19-290 limits assumed): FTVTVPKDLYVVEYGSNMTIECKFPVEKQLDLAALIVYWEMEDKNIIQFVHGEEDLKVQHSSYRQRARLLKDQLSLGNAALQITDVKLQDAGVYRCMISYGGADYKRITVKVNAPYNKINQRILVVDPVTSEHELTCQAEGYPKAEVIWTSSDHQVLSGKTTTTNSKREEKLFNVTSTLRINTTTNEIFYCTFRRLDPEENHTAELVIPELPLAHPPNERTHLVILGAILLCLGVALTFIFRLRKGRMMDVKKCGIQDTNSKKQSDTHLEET

CTP188 PD1_PD1_sCD28TM_CD28_CD40 (dimeric) (receptor)
IL-2 secretion (ELISA), 24 h coculture with LoVo-OKT3 [1]: < 1000 pg/mL

CTP189 PD1_PD1_sCD28TM_CD28_CD40 (monomeric) (receptor)
IL-2 secretion (ELISA), 24 h coculture with LoVo-OKT3 [1]: < 1000 pg/mL

CTP194 OSM_MFE23_spCD28_CD28_CD40 (receptor)
IFNγ (ELISA) after 24 h with LoVo-OKT3 [2]: > 30 ng/mL
IFNγ (ELISA), coculture with LoVo-OKT3 [2]: 1000 pg/mL
IL-2 (ELISA) after 24 h with LoVo-OKT3 [2]: 4000 pg/mL
IL-2 (ELISA), coculture with LoVo-OKT3 [2]: 4000 pg/mL
IL-2 secretion (ELISA), 24 h coculture with LoVo-OKT3 [2]: 4000 pg/mL
IL-2 secretion (ELISA), coculture with LoVo-OKT3 [2]: 29 ng/mL
T-cell expansion over 18 days with LoVo-OKT3 and IL-2 [2]: > 60 fold
fold expansion after two rounds of stimulation with LoVo-OKT3 [2]: 10 fold
fold expansion on serial stimulation with LoVo-OKT3 [2]: 12 fold
fold expansion with LoVo-OKT3, after restimulation (day 14-15) [2]: > 10 fold
fold expansion with LoVo-OKT3, first time point (day 6-8) [2]: 4 fold

CTP195 OSM_MFE23_spCD28_CD28_CD40 (SVQE-AVQA) (receptor)
IFNγ (ELISA) after 24 h with LoVo-OKT3 [2]: > 30 ng/mL
IL-2 (ELISA) after 24 h with LoVo-OKT3 [2]: 4000 pg/mL

CTP196 OSM_MFE23_spCD28_CD28_CD40 (PVQET-AVAEA) (receptor)
IFNγ (ELISA) after 24 h with LoVo-OKT3 [2]: 10 ng/mL

CTP197 OSM_MFE23_spCD28_CD28_CD40 (PQEINF-AQAINF) (receptor)
IFNγ (ELISA) after 24 h with LoVo-OKT3 [2]: > 30 ng/mL

CTP198 OSM_MFE23_spCD28_CD28_CD40 (P227A) (receptor)
IFNγ (ELISA) after 24 h with LoVo-OKT3 [2]: > 30 ng/mL
IL-2 (ELISA) after 24 h with LoVo-OKT3 [2]: 4000 pg/mL

CTP200 OSM_MFE23_spCD28_CD28_CD40_CD40_CD40 (receptor)
IFNγ (ELISA) after 24 h with LoVo-OKT3 [2]: > 30 ng/mL

CTP201 OSM_MFE23_spCD28_CD28 (PYAPP-AYAA)_CD40 (receptor)
IFNγ (ELISA), coculture with LoVo-OKT3 [2]: 1000 pg/mL
IL-2 (ELISA), coculture with LoVo-OKT3 [2]: 2500 pg/mL

CTP202 OSM_MFE23_spCD28_CD28 (YMNM-FMNM)_CD40 (receptor)
IL-2 (ELISA), coculture with LoVo-OKT3 [2]: 2500 pg/mL

MFE23 CD28(IEV) truncated CoStAR (receptor)
IL-2 secretion (ELISA), coculture with LoVo-OKT3 [2]: 4.6 ng/mL

MOV19.CD28 CoStAR (from UniProt P10747 19-220) (receptor)
enhancement of Bcl-XL induction in the presence of OvCAR-OKT3 [3]: 20%
enhancement of IL-2 induction in the presence of OvCAR-OKT3 [3]: 20%
enhancement of TNFα production in the presence of OvCAR-OKT3 [3]: 20 to 30%
mean fold expansion of T cells, 21 days with OvCAR-OKT3 [3]: 187 fold

MOV19.CD28.CD40 CoStAR (OSM_MOV19_spCD28_CD28_CD40) (receptor)
CD137 expression [3]: 50%
CD137 expression in CoStAR+ TIL, coculture with FolR high expressing tumor digest [3]: 50%
CD137 expression in CoStAR+ TIL, coculture with FolR low expressing tumor digest [3]: > 20%
IL-2 production [3]: 5%
TNFα production [3]: 15%
enhancement of Bcl-XL induction in the presence of OvCAR-OKT3 [3]: 35%
enhancement of IL-2 induction in the presence of OvCAR-OKT3 [3]: 30 to 50%
enhancement of TNFα production in the presence of OvCAR-OKT3 [3]: 25% and 50%
mean fold expansion of T cells, 21 days with OvCAR-OKT3 [3]: 1300 fold
